We go through seven molecules from patent publication US20200299408A1 (Genentech, published 2020).

The target of assay [1] is T1, commercial CD3ε (Creative Biomart, Catalog Number CD3E-2194H) (human, UniProt P07766).
T1 construct: commercial recombinant protein; also called commercial CD3E
Nature of the assay: binding affinity on commercial CD3ε (Creative Biomart CD3E-2194H); method not stated in the legend.

Assay [2] concerns the target T2, single chain human CD3ε-26mer-CD3γ (CD3εγ) (human).
T2 construct: also called human CD3εγ
T2 chain: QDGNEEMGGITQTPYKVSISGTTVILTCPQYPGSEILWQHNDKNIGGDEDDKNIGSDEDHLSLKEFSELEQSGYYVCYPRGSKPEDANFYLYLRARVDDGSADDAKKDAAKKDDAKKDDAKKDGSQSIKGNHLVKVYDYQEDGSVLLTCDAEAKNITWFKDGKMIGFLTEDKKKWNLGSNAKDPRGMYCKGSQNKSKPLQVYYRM
Nature of the assay: Biacore, monovalent KD of the CD3 arm; CD3 antigen not named on the sheet (reactivity hu, cyno).

The target in assay [3] is T2, single chain human CD3ε-26mer-CD3γ …. Nature of the assay: monovalent binding affinity, method not stated on the sheet; column huCD3εγ.
For assay [4] the target is unchanged. Nature of the assay: Biacore, human CD3εγ on chip, antibody in flow-through. On the technique in general: Surface plasmon resonance follows binding to a sensor surface in real time, without labels.
In a further assay the target is T3, cyCD3εγ (cynomolgus monkey).
T3 chain 1: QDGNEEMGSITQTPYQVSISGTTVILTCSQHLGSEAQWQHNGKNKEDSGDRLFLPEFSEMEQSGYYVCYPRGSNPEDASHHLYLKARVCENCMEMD
T3 chain 2: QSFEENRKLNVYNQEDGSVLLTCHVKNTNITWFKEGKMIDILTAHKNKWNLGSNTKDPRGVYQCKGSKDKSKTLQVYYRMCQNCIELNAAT
Nature of the assay: monovalent binding affinity, method not stated on the sheet.

Another assay concerns the target T4, E6A.
T4 construct: Residue number counts from the N-terminus of CD3ε; also called CD3εγ E6A; CD3 mutant E6A
T4 single chain CD3ε-26mer linker-CD3γ: T2 chain with E6A
Nature of the assay: phage ELISA: anti-CD3 antibody coated on the plate, dilution series of M13 phage displaying the CD3εγ variant, anti-M13-HRP, OD A450; [phage] axis 10^-3 to 10^0 without unit. The method, then:
(§1) This CD3εγ phagemid was used as a template for making single alanine mutations in CD3ε by Kunkel mutagenesis. […] The effect of alanine mutation in CD3εγ on anti-CD3 antibody binding was assessed using a phage ELISA. Each anti-CD3 antibody was immobilized on a NUNC maxisorp plate at 2 μg/ml in PBS buffer overnight at 4° C. Purified phage supernatant displaying a CD3εγ alanine variant (1.0 OD₄₅₀) was added to the plate and allowed to bind at room temperature with shaking for 1 h. After washing, bound phage was detected with anti-M13-HRP (GE Healthcare cat #45-001-419).
Background: ELISA stands for enzyme-linked immunosorbent assay.

A further assay deals with T5, G3A.
T5 construct: Residue number counts from the N-terminus of CD3ε; also called CD3εγ G3A; CD3 mutant G3A
T5 single chain CD3ε-26mer linker-CD3γ: T2 chain with G3A
Described as above. The protocol: as §1

The target in a further assay is T6, E5A.
T6 construct: Residue number counts from the N-terminus of CD3ε; also called CD3εγ E5A; CD3 mutant E5A
T6 single chain CD3ε-26mer linker-CD3γ: T2 chain with E5A
The assay is described as above. The method, then: as §1

A further assay concerns the target T7, N4A.
T7 construct: Residue number counts from the N-terminus of CD3ε; also called CD3εγ N4A; CD3 mutant N4A
T7 single chain CD3ε-26mer linker-CD3γ: T2 chain with N4A
The assay is described as above. The protocol:
as §1

Assay [5] addresses T8, human CD3 on T cells (human, UniProt P07766 22-207).
T8 construct: whole, on cells; On cells CD3ε stands in the CD3/TCR complex; also called CD3 antigen; CD3ε
Nature of the assay: FACS on Jurkat cells (CD3), anti-huIgG-PE; number printed beside the curve without a quantity name, taken as EC50. The protocol: (§2) Binding affinities for the each of the CD3/CD20 TDBs were tested by Biacore or FACS analysis, as described above for the anti-CD3 antibodies. Briefly, for Biacore binding assays, human CD3εγ was immobilized on Biacore Series S CM5 sensor chip using the amine coupling kit from Biacore and CD3/CD20 TDBs or Fab variants thereof were in the flow through. For FACS binding assays, either Bjab cells (for B cell antigens) or Jurkat cells (for CD3 antigen) were incubated with various concentrations of TDB antibodies at 4° C. for 30 minutes, then cells were washed and incubated with 2nd antibody (anti-huIgG-PE; BD Bioscience) for another 15 minutes, before cells were washed again and ready for FACS analysis.

For assay [6], the target named is T8, human CD3 on T cells. The description is as above. The method, then: as §2
The source holds these as a separate data set.

Assay [7] addresses T8, human CD3 on T cells. The assay is described as above. The method, then:
as §2
The source holds these as a separate data set.

Assay [8] concerns the target T8, human CD3 on T cells. Nature of the assay: Scatchard; table headed 'Bivalent Binding Affinity', though its footnote reads 'monovalent binding Kd measured by scatchard'; cells not named.
For assay [9], the target named is T8, human CD3 on T cells. Nature of the assay: Scatchard; table 'Monovalent Binding Affinity'; the partner arm is not given, the TDB is taken from legend paragraph 149, p-1410 and Figure 16; cells not named.
Assay [10] deals with T1, commercial CD3ε (Creative Biomart, …). Nature of the assay: binding affinity on commercial CD3ε (Creative Biomart CD3E-2194H); method not stated in the legend. The source holds these as a separate data set.

Changes are numbered by the printed parent chain. Names and notes keep the numbering of the source. Values joined by “and” are separate entries in the source; they are usually repeats but may differ in a detail not shown here. Equal values may be shown once. Read-outs that look alike come from different tables or passages of the source.

B1: humanized 38E4 variant: VH1 graft + R71A / K4 graft + P43S (antibody, V domains shown)
VH: EVQLVQSGAEVKKPGASVKVSCKASGFTFTSYYIHWVRQAPGQGLEWIGWIYPENDNTKYNEKFKDRVTITADTSTSTAYLELSSLRSEDTAVYYCARDGYSRYYFDYWGQGTLVTVSS
VL: DIVMTQSPDSLAVSLGERATINCKSSQSLLNSRTRKNYLAWYQQKPGQSPKLLIYWTSTRKSGVPDRFSGSGSGTDFTLTISSLQAEDVAVYYCKQSFILRTFGQGTKVEIK
Take B1: the Kd in assay [1] was determined as 0.5 nM.

B2: anti-CD3 clone 40G5c (antibody, V domains shown)
VH: B1 VH with F27Y, S31N, E54G, N55D, D56G, D66G, V68A, I70L, G100S, R103N
VL: B1 VL with S49P, T57A, K61E, K95T
notes: also called hu40G5c
A word on the koff: it is the rate constant with which the complex falls apart. Lower therefore signals slow dissociation. The term kon denotes a measure of how fast the partners come together. A higher kon goes with faster complex formation. Consider B2, for which the Kd in assay [2] was 51 nM; in [3], 12 nM; in [4], 15 nM; with cyCD3εγ it was 14 nM. Besides, the koff in assay [4] came out at 0.0176 s⁻¹. In addition, the kon in assay [4] stood at 1.2e+06 M⁻¹ s⁻¹. Further, the binding result with E6A, in the assay with G3A, with E5A and in the assay with N4A was “binds” in each case.

B3: KH CD20 2H7v16/hu40G5c (bispecific antibody, V domains shown)
VH 1: EVQLVESGGGLVQPGGSLRLSCAASGYTFTSYNMHWVRQAPGKGLEWVGAIYPGNGDTSYNQKFKGRFTISVDKSKNTLYLQMNSLRAEDTAVYYCARVVYYSNSYWYFDVWGQGTLVTVSS
VL 1: DIQMTQSPSSLSASVGDRVTITCRASSSVSYMHWYQQKPGKAPKPLIYAPSNLASGVPSRFSGSGSGTDFTLTISSLQPEDFATYYCQQWSFNPPTFGQGTKVEIK
VH 2: B1 VH with F27Y, S31N, E54G, N55D, D56G, D66G, V68A, I70L, G100S, R103N
VL 2: B1 VL with S49P, T57A, K61E, K95T
modifications: Knob-into-hole full-length IgG; constant regions are not in the letters.
notes: also called KH CD20 2H7v16/40G5c; CD20KH (2H7v16/40G5c)
As usually defined, the EC50 is the concentration giving half of the maximal effect. Lower therefore signals a more potent agent. Consider B3, for which the half-maximal effective concentration (EC50) was 1.25 µg/mL and 8.3 nM with human CD3 on T cells [5]; 1.6 µg/mL and 11 nM with human CD3 on T cells [6]; 1.21 µg/mL with human CD3 on T cells [7].

B4: K&H 2H7v16/hu UCHT1vM1 (bispecific antibody, V domains shown)
VH 1: B3 VH 1
VL 1: B3 VL 1
VH 2: EVQLVESGGGLVQPGGSLRLSCAASGYSFTGYTMNWVRQAPGKGLEWVALINPYKGVSTYADSVKGRFTISVDKSKNTAYLQMNSLRAEDTAVYYCARSGYYGDSDWYFDVWGQGTLVTVSS
VL 2: DIQMTQSPSSLSASVGDRVTITCRASQDIRNYLNWYQQKPGKAPKLLIYYTSRLESGVPSRFSGSGSGTDYTLTISSLQPEDFATYYCQQGNTLPWTFGQGTKVEIK
modifications: Knob-into-hole full-length IgG; constant regions are not in the letters.
notes: also called CD3/CD20 TDB 2H7v16/UCHT1vM1
As for B4, the Kd came to 40 nM with human CD3 on T cells [8] and 318 nM with human CD3 on T cells [9].

B5: CD20KH (2H7v16/21A9) (bispecific antibody, V domains shown)
VH 1: B3 VH 1
VL 1: B3 VL 1
VH 2: EVQLVESGGGVVQPGGSLKLSCAASGFTFSGSAMHWVRQASEKGLEWVGRIRSRANSYATAYAASVKDRFTISRDNSKNTAYLQMNSLKTEDTAVYYCIRDTMVRGIDYWGQGTLVTVSS
VL 2: not shown
modifications: Knob-into-hole full-length IgG; constant regions are not in the letters.
notes: also called CD3/CD20 TDB 2H7v16/21A9
For the molecule B5, the concentration giving a half-maximal response (EC50) with human CD3 on T cells [6] is 1.6 µg/mL and 11 nM.

B6: murine 38E4 (antibody, V domains shown)
VH: QVQLQQSGPELVKPGASVTISCTASGFTFTSYYIHWVRQRPGQGLEWIGWIYPENDNTKYNEKFKDKATLTADTSSSTAYMQLSSLTSEDSAVYYCARDGYSRYYFDYWGQGTTLTVSS
VL: DIVMTQSPSFLAVSAGEKVTMSCKSSQSLLNSRTRKNYLAWYQQRPGQSPKLLIYWTSTRKSGVPDRFTGSGSGTDFTLTISSVQAEDLAIYYCKQSFILRTFGGGTKLEIK
B6 had a Kd in assay [1] of 0.75 nM.

B7: murine 41D9 (antibody, V domains shown)
VH: QIQLVQSGPELKKPGETVKISCKASGYTFTNYGMNWVKQAPGKGLKWMGWINTNTGKPTYAEEFKGRFVFSLETSASTTYLQINNLKNEDTATYFCARRGDYRYAWFLYWGQGTLVTVSA
VL: QAVVTQESALTTSPGGTVILTCRSSTGAVTTSNYANWVQEKPDHLFTGLIGGTSNRAPGVPVRFSGSLIGDKAALTITGAQTEDDAMYFCALWYSTHFVFGGGTKVTV
notes: also called 41D9a
Molecule B7 returned a Kd in assay [10] of 1.1 nM.
